The text below walks through data of US20220229068A1, “DETECTION OF PROTEIN TO PROTEIN INTERACTIONS” (THE GOVERNING COUNCIL OF THE UNIVERSITY OF TORONTO, priority 2019, published 2022).

Common to all, as to assay: SIMPL ELISA, bait-IN/prey-CIC
(An ELISA detects its analyte on a solid surface through an enzyme-linked reagent.)

The target of test [1] is T1, NTF4 (prey, CIC format) (human) (UniProt P34130).
T1 sequence (looked up): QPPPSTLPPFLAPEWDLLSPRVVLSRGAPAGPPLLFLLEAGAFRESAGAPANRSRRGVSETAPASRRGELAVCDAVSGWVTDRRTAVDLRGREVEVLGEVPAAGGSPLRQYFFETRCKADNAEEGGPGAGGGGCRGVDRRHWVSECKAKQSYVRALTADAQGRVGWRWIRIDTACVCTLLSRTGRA

Test [2] has as its target T2, DRAP1 (prey, CIC format) (human) (UniProt Q14919).
T2 sequence (looked up): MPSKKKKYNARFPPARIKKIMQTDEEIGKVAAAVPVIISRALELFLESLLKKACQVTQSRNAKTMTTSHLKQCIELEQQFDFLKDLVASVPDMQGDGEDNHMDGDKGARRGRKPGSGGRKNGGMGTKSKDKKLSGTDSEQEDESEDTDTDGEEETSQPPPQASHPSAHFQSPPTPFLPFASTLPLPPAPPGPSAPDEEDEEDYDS

Test [3] addresses T3, PDPK1 (prey, CIC format) (human) (UniProt O15530).
T3 sequence (looked up): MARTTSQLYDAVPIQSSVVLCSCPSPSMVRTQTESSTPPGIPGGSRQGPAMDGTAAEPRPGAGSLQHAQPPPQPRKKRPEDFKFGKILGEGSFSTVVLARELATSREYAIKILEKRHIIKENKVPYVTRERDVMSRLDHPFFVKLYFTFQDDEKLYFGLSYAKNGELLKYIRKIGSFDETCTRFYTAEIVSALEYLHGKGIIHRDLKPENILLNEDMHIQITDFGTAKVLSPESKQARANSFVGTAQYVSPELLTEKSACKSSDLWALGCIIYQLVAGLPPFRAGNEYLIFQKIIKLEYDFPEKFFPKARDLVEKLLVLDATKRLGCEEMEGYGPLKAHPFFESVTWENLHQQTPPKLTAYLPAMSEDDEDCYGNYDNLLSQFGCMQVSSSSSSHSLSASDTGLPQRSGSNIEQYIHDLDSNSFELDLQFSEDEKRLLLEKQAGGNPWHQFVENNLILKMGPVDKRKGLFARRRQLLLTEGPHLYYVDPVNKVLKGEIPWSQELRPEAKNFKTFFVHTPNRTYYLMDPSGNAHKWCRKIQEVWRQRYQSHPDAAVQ

The target in test [4] is T4, FRS2 (prey, CIC format) (human) (UniProt Q8WU20).
T4 sequence (looked up): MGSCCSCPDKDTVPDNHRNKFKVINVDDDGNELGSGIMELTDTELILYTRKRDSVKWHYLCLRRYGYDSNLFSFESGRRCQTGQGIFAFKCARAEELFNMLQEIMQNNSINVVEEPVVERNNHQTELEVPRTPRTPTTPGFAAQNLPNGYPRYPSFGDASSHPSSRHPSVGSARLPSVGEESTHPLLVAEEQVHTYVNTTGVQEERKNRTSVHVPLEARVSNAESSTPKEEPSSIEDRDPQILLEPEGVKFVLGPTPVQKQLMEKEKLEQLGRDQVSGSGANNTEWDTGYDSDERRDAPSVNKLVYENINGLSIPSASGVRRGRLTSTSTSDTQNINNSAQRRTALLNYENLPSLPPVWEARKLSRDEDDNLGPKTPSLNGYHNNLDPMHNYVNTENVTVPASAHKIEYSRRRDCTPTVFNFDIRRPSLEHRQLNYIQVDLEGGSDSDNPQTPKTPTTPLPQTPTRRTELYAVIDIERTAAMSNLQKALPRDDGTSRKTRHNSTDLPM

Test [5] has as its target PCNA (prey, CIC format) (human) (UniProt P12004).
Test [6] deals with T5, NCBP2 (prey, CIC format) (human) (UniProt P52298).
T5 sequence (looked up): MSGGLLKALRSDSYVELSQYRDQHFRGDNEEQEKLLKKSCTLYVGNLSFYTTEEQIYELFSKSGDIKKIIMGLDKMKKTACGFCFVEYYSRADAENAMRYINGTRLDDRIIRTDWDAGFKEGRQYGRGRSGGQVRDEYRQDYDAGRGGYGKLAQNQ

Test [7] deals with T6, S100B (prey, CIC format) (human) (UniProt P04271).
T6 sequence (looked up): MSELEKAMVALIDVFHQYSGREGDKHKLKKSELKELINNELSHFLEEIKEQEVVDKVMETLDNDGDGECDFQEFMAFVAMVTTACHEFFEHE

Substrate in test [8]: FOS (prey, CIC format) (human) (UniProt P01100)
The target in test [9] is ARHGAP1 (prey, CIC format) (human) (UniProt Q07960).
Chain of ARHGAP1 (prey, CIC format) (human) (Q07960 whole entry): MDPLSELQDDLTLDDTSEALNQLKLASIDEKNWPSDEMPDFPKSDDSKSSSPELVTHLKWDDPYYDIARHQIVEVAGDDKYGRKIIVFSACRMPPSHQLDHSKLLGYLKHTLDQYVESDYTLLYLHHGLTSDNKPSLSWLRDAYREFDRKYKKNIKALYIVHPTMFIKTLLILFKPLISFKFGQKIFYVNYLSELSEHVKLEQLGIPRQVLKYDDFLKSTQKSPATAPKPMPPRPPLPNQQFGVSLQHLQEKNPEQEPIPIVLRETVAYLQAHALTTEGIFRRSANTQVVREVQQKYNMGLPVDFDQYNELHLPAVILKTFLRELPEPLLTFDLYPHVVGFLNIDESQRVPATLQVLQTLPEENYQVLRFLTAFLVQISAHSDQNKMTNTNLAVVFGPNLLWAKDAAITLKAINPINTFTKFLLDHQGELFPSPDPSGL
Test [10] addresses CASP9 (prey, CIC format) (human) (UniProt P55211).

Chain of FOS (prey, CIC format) (human) (P01100 whole entry): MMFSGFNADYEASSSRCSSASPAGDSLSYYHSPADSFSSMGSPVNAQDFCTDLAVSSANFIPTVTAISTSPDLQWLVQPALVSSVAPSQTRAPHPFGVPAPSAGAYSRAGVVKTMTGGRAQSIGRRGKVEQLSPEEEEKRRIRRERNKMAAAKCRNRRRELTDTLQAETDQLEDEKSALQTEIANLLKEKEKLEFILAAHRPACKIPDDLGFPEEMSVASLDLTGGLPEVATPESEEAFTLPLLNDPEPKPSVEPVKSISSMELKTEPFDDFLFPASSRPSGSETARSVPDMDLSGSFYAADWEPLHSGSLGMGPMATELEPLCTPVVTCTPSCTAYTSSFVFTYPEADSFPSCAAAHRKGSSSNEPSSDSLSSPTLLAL
Chain of PCNA (prey, CIC format) (human) (P12004 whole entry): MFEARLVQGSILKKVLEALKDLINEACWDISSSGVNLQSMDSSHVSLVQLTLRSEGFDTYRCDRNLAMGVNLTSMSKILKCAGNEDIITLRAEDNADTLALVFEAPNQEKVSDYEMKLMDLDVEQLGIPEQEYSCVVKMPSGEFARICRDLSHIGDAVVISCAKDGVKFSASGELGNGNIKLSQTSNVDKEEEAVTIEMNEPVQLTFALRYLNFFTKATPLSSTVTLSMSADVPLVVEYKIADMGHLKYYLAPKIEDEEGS
Chain of CASP9 (prey, CIC format) (human) (P55211 whole entry): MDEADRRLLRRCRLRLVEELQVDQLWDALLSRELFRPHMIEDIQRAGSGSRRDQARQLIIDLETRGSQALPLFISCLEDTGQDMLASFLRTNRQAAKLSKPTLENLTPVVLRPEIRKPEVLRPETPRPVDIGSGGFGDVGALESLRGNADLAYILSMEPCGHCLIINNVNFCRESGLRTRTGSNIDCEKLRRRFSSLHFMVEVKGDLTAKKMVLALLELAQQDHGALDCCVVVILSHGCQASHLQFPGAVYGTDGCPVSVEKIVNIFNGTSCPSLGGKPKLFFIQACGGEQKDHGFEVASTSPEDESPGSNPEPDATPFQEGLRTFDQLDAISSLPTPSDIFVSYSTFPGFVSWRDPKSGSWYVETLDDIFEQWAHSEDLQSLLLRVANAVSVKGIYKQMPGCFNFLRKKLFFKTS

B1: DR1 (bait, IN format) (protein, human, UniProt Q01658 1-176, looked up)
chain: MASSSGNDDDLTIPRAAINKMIKETLPNVRVANDARELVVNCCTEFIHLISSEANEICNKSEKKTISPEHVIQALESLGFGSYISEVKEVLQECKTVALKRRKASSRLENLGIPEEELLRQQQELFAKARQQQAELAQQEWLQMQQAAQQAQLAAASASASNQAGSSQDEEDDDDI
Regarding B1, the figures for the PLU mean in test [1] and in [2] were 0.0529 and 3.97, respectively.

B2: GADD45A (bait, IN format) (protein, human, UniProt P24522 1-165, looked up)
chain: MTLEEFSAGEQKTERMDKVGDALEEVLSKALSQRTITVGVYEAAKLLNVDPDNVVLCLLAADEDDDRDVALQIHFTLIQAFCCENDINILRVSNPGRLAELLLLETDAGPAASEGAEQPPDLHCVLVTNPHSSQWKDPALSQLICFCRESRYMDQWVPVINLPER
In the case of B2, the PLU mean in test [3] came to 0.265; in test [4], 0.21; in test [5], 0.0617.

B3: NCBP1 (bait, IN format) (protein, human, UniProt Q09161 1-790, looked up)
chain: MSRRRHSDENDGGQPHKRRKTSDANETEDHLESLICKVGEKSACSLESNLEGLAGVLEADLPNYKSKILRLLCTVARLLPEKLTIYTTLVGLLNARNYNFGGEFVEAMIRQLKESLKANNYNEAVYLVRFLSDLVNCHVIAAPSMVAMFENFVSVTQEEDVPQVRRDWYVYAFLSSLPWVGKELYEKKDAEMDRIFANTESYLKRRQKTHVPMLQVWTADKPHPQEEYLDCLWAQIQKLKKDRWQERHILRPYLAFDSILCEALQHNLPPFTPPPHTEDSVYPMPRVIFRMFDYTDDPEGPVMPGSHSVERFVIEENLHCIIKSHWKERKTCAAQLVSYPGKNKIPLNYHIVEVIFAELFQLPAPPHIDVMYTTLLIELCKLQPGSLPQVLAQATEMLYMRLDTMNTTCVDRFINWFSHHLSNFQFRWSWEDWSDCLSQDPESPKPKFVREVLEKCMRLSYHQRILDIVPPTFSALCPANPTCIYKYGDESSNSLPGHSVALCLAVAFKSKATNDEIFSILKDVPNPNQDDDDDEGFSFNPLKIEVFVQTLLHLAAKSFSHSFSALAKFHEVFKTLAESDEGKLHVLRVMFEVWRNHPQMIAVLVDKMIRTQIVDCAAVANWIFSSELSRDFTRLFVWEILHSTIRKMNKHVLKIQKELEEAKEKLARQHKRRSDDDDRSSDRKDGVLEEQIERLQEKVESAQSEQKNLFLVIFQRFIMILTEHLVRCETDGTSVLTPWYKNCIERLQQIFLQHHQIIQQYMVTLENLLFTAELDPHILAVFQQFCALQA
Take B3: the PLU mean in test [6] turned out to be 2.15; in [7] it was 0.217.

B4: CEBPG (bait, IN format) (protein, human, UniProt P53567 1-150, looked up)
chain: MSKISQQNSTPGVNGISVIHTQAHASGLQQVPQLVPAGPGGGGKAVAPSKQSKKSSPMDRNSDEYRQRRERNNMAVKKSRLKSKQKAQDTLQRVNQLKEENERLEAKIKLLTKELSVLKDLFLEHAHNLADNVQSISTENTTADGDNAGQ
As to B4, the PLU mean is 0.788 in [8], 0.0585 in test [9] and 0.482 in test [10].
